From US20260308536A1, “NOVEL URICASE VARIANTS AND METHODS OF USE THEREOF” (priority 2023, published 2026) come the findings set out here.

Where a chain is given by its changes, count along the chain named. Names and notes keep the numbering of the source.

Broadly, the Km is the concentration of substrate that gives half-maximal velocity. Broadly, the kcat is the number of substrate molecules converted per active site and unit of time at saturation.

Substrate in data set [1]: O=c1[nH]c(=O)c2[nH]c(=O)[nH]c2[nH]1
Description: Michaelis-Menten kinetics, MedU_1B7. Type of data set: biochemical, Arthrobacter globiformis. As to conditions: other: role: substrate; non-PEGylated; Table 8B; pH 10.5. As for the experimental part:
(§1) Select Arthrobacter globiformis uricase variants MedU_1B7, MedU_5B8, MedU_1C2, MedU_5C9, MedU_5E6, MedU_5E9, and MedU_IF1 were subject to further characterization by comparing their expression yields, Michaelis-Menten kinetics parameters, and thermostability measured by temperatures at which 50% of normal activity was lost determined by heat stress activity assay, with those of the wild type Arthrobacter globiformis uricase. The expression yields were determined as described above in the “Methods” section. The Michaelis-Menten kinetics parameters kcat and KM, and temperatures at which 50% of normal activity was lost (i.e., 50% thermal inactivation temperatures, referred to as TI50 (° C.)) measured by heat stress activity assay were likewise determined using the methods described in Example 1.

Substrate in data set [2]: O=c1[nH]c(=O)c2[nH]c(=O)[nH]c2[nH]1
The data set can be described thus: Michaelis-Menten kinetics, MedU_1C2. Type of data set: biochemical, Arthrobacter globiformis. As to conditions: other: role: substrate; non-PEGylated; Table 8B; pH 10.5. As for the experimental part: as §1

B1: Arthrobacter globiformis uricase variant MedU_1B7, A35D/A83G/A145T/A148S/A204G/A213G/I243V/K244S, SEQ ID NO: 77 (Arthrobacter globiformis; … (protein)
chain: MTATAETSTGTKVVLGQNQYGKAEVRLVKVTRNTDRHEIQDLNVTSQLSGDFEAAHTAGDNAHVVATDTQKNTVYAFARDGFGTTEEFLLRLGKHFTEGFDWVTGGRWAAQQFFWDRINDHDHAFSRNKSEVRTAVLEISGSEQTIVSGIEGLTVLKSTGSEFHGFPRDKYTTLQETTDRILATDVSARWRYNTVEVDFDAVYGSVRGLLLKGFAETHSLALQQTMYEMGRAVIETHPEIDEVSMSLPNKHHFLVDLQPFGQDNPNEVFYAADRPYGLIEATIQREGSRAD
notes: R49S backbone, 291 aa; pET-26b(+), C-terminal His6, E. coli; non-PEGylated
Consider B1, for which, in data set [1], the Km is 440 ± 90 µM and the kcat was 3.8 ± 0.2 s⁻¹.

B2: Arthrobacter globiformis uricase variant MedU_1C2, A145T/V195E/I243V/K244S/K250N/Y270H, SEQ ID NO: 80 (Arthrobacter globiformis; … (protein)
chain: B1 chain with D35A, G83A, S148A, V195E, G204A, G213A, K250N, Y270H
notes: as for B1
Take B2: in data set [2], the Km turned out to be 500 ± 90 µM and the kcat is 3.4 ± 0.2 s⁻¹.
